test: yeast display, Sf9 membrane polyspecificity reagent, FACS + sequencing; frameworks hold sequencing errors
Summary of the method: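 Polyreactivity labels are assigned by the sorting gate from which each nanobody was recovered. The gates were low and high (top ~1%), set on anti-HA fluorescence for expression and streptavidin fluorescence for reagent binding. Before sorting, galactose-induced (36–48 hours) yeast display cells were stained for 1 hour at 4 °C with 10% biotinylated, detergent-solubilized Sf9 membrane reagent.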

Sequence	polyreactivity (PSR sort gate)
QGQLVESGGGLVQAGGSLRLSCAASGRTFIGNVMGWYRQAPGKERELVAAISKSGTRTYYADSVKGRFTISRDIAKNTVYLQMNSLKPEDTAVYYCAASSYTHKRYPSPYDYWGQGTQVTVSA	high polyreactivity
QVQLVESGGGLVQAGGSLRLSCAASGSTFYVNAMGWYSQAPGKEREFVAAITWNSGSTYYADSVKGRFTISRDNAKNTVYLQMNSLKPEDTAVYYCAAVLSVRVYGYDYWGQGTQVTVSS	low polyreactivity
QVQLVESGGRLVQAGGSLRLTCAASGRIFSVNAMGWYRQAPGKERELVAAITPGASTNYADSVKGRFTISRDNAKNTVYLQMTSLKPEDTAVYYCAAGWVSFEDWVLGSYYEYDYWGQGTHVTVSS	low polyreactivity
QVQLVESGGGFVQAGGSLSLSCAASGFTFRRYAMGWYRQAPGKERELVAAITSGGSTNYADSVKGRFTISRDNAKNTVYLQMNSLKPEDTAVYYCNARAGYERYGYWGQGTQVTVSS	high polyreactivity
QVQLVESGGGLVQAGGSLRLSCAASGITFRRSAMGWYRQAPGKEREVVAAISIRGGRTYYADAVKGRFTISRDNAKNTVYLQMNSLIPEDTAVYYCAADGVYALDVESDYWGLGTQVTVSS	high polyreactivity
QVQLVDSGGCLVHAGASLRLSCAASGGIFRTYAMGWARQAAGKERELVAAITFSAGSTFYADSVKGRYTISRDNAKNTVYLQMNSLKPEDTAVYDCATPGYILGLYQYWHHYDYWGQGTQVTVSS	low polyreactivity
QVWLQESGGGRVQACGSLRLSCAASGTIARDIFMGWYRQAPGKEREFVATIAQGGITNYADSVKGRFTISRDNAKNTVYLQMNSVKPGDTAVYYCAARDGNCYWFYYWGQGTQVTVSS	high polyreactivity
QVQLVESGGGLVQAGGSLRLRCAASGRTFAVYAMGWYRQAPGKERELVAAITLGASRTYYADSVKGRFTISRDNAKNTVYLQMNSLKPEDTAVYYCAVTWGARTDQWSLRVFVGYDYWGQGTQVTVSS	low polyreactivity
QVQLVQSGGGLVEAGGSLRLSCAASGSNFWANAMGWYRQAPGKERELVAGITLNGGLTYYADSVKGRFTISRDNAKNTVYLQMYSLKPEETEVYFCAAAYPTDRHYYWGLGTQVTVSS	low polyreactivity
QVQLVESGGGLVQAGGSLRLSCAASGFIFDDYAMGWYRQAPGKERELVAAISVSSTNYADSVKGRFTISRDNAKNTVYLQMNSLKPEDTAVYYCAADTYTYFLASYLYGQYDYWGQGTQVTVSS	low polyreactivity
QVQLVESGGGLVQAGGSLRLSCAASGRIFTANAMGWYRQAPGKERELVAAITTSDGTYYADSVKGRFTISRDNAKNTVYLQMNSLKPEDTAVYYCATDTATYPTAMDYWGQGTQVTVSS	low polyreactivity
QDQLVESGGGLVQAGASLRLSCAASGNIFANAMGWYRQAPGKQRELVAAISRSGGRTYYADSVKGRFTISRDNANNTVYLQMKSLIPEDTAVSYCNKAAYNYYLYGYWGQGTQVTVSS	high polyreactivity
QVQLVESGGGLVHAGGSLRLSCAASGSIFYYYAMGWYRPAPGKERELVAAIYNGGSTYYADSVKGRFTISRDNAKNTVYLEMNSLKPEDTAVYYCNAGYSYWYRDLGYDSWGQGTQVTVSS	low polyreactivity
HVQLVESGAGLVQAAGSLRLSCAASGRPLDSNAMGGYRQAPGKDRELVAAITYSGGSTYYADSVKGRFTISRDNAKNTVYLQMNSLKPEDTAVYYCAKVGRLYRVGGYDYWGQGTQVTVSS	low polyreactivity
QVQLVESGGGLVQAGGSLRLSCAASGRIFKNYAMGWYRQAPGKERELVAAISWSGGRTYYADSVKGRFTISRDYAKNTVYLQMNSLKPEDTAVYYCASAARRGPTSIEPFGYGSWGQGTQVTVSS	high polyreactivity
QVQLVESGGGLVQAGGSLRLSCAASGSTFYVYVMGWYRQAPGKERELVAVIDWRGGSTYYADSVKGRFTISRDNAKNTVYLQMNSLKPEDTAVYYCNKDAQFYYKLPYYKERDWGQGTQVTVSS	low polyreactivity
QDQLVESGGGLVQAGGSLRLICAASGSTLPRYTMGWYRQAPGKERELVAAISFSGSSTYYADSVKGRFTISRDNAKNTVYLQMNSLKPEDTAVYYCRYGYNYWGQGTQVTVSS	high polyreactivity
QVQLVESGGGLVQAGGSLRLSCAASGSTFPQYAMGWDRQAPGKERELVAVITDSGGSTYYADSVKGRFTISRDNAKNTVYLQKNSLKPEDTAVYYCAARRWSPRSGLGYGYWGQGTQVTVSS	high polyreactivity
QVQLVESGGGLVQAGGSLRLSCDASGSTFRHYAMGWYRQAPGKERELVAAISSTGGSTYYADSVKGRFTISRDNAKNTVYLQMNSLKPEDTAVSYCAARRLYWGQGTQVTVSS	high polyreactivity
QVQLVESGGALVQAGGSLRLSCAASARTFIQNGMGWNRQEPGKERELVAAISYRGGTTSYADSVQGRFTISRDNAKNTVYLQMNSLKPEVTAVYYCAKRYTYYSYDYWGQGTQVTVSS	high polyreactivity
QVQLVESGGGLVQAGGSLRLSCAASGSTFQVYAMGWYRQAPGKERELVATIRRTGGSTYYADSVKGRFTISRDNAKNTVYLQMNSLKPEDTAVYYCAARLGYAGNRDGSWGQGTQVTVSS	high polyreactivity

Sequence	polyreactivity (PSR sort gate)
QVQLVESGGGLVQAGGSLRLSCAASGSISDSYAMGWYRPAPGKERELVAAITSGDSTYYADSVKGRFTISRDNAKNTVYLQMNSLKPEDTAVYYCAKRVSRVLGYGFTDWSEYDYWGQGTQVTVSS	low polyreactivity
QDQLVESGGCLDQAGCSLRLSCAASGSIFYYNAMGWSRQAHGKESEFVATITNSGGRTYDADSVKGRFTISRDNAKNSVYLQMNSLKPEDTAVYYCNADVHRFSGNGYRYYYWGQGTQVTVSS	low polyreactivity
QVQLVESGGGLVQAGGSLRLSCAASGSIFKYYAMGWYRQAPGKERELVAAISSSGNTYYADSVKGRFTISRDNAKNTVYLQMNSLKPEDTAVYYCNAYRPGEMDYWGQGTQVTVSS	high polyreactivity
QVQLVESGGGLVQAGGSLRLSCAASGFIFYKNAMGWYRKAPGKERELVAAISSRGGSTSYADSVKGRFTISRDNAKNTVYLQMNSLKREDTAVYYCAAYPDYSYYYWGQGTQVTVSS	high polyreactivity
QVQLVESGGGLVQAGGSLRLSCAASGRTFYFYTLGWYRQAPGKERELVAAISWSGGSTYSADSVKGRFTISRDNAKNTVYLQLNSLKPEDTAVYYCAASSPWEQSNDQFYYWGQGTQVTVSS	low polyreactivity
QVQLVESGGGLVQARGSLRLSCAASGSISVYNAMGWYRQAPGKERELVAAISWSGGRTSYADSVKGRFTISRDNAKNTVYLQMNSLKPEDTAVYYCAADELTVLWDEDYWGQGTQVTVSS	low polyreactivity
QVQLVESGGGLVQAGGSLRLSCAASGRTFYSNAMGWYRQAPGKERELVAAISSSGTSTRYADSVKGRFTISRDNAKNTVYLQMNSLKPEDTAVYYCAAVGWYHDYYWGQGTQVTVSS	high polyreactivity
QVQLVESGGGLVQAGGSLRLSCAASGRIFSLYAMGWYRPAPGKERELVAAITWRGGGTYYADSVKGRITISRDNAKNTVFLQMNSLKPEDTAVYYCAAEVKHIFYGYWGQGTQVTVSS	high polyreactivity
QVQLVESGGGLVQAGGSLRLSCAASGLFFSYYAMGWYRQAPGKERELVAAINSGGSTYYADSVKGRFTISRDNAKNTVYLQMNSLKPEDTAVYYCAAHLWYHGHLFDYWGQGTQVTVSS	high polyreactivity
QVQLVESGGGLVQAGGSLRLSCAASGFTLAFYGMGRSRQAPGKERELVAAISRSGGSTYYADSVKGRFTISRDNAKNTVYLQMNSLKPEDTAVYYCAAAFRAGDVYGYYWGQGTQVTVSS	high polyreactivity
QVHLVESGGGLVQAGGSLRLSCAASGRIYTGNTMVWYRQAPGKEREFVAAISGSGGRTFYADSVKGRFTISRDNEKNTVYLQMNSLKPEDTAVYYCAARRYRSLGSYGTGSFSYNYWGQGTQVTVSS	high polyreactivity
QVQLVESGGGLVQAGGSLRLSCAASGFTIARNTMGWYRPAPGKERELVAAISGGGSTNYADSVKGRFTISRDNAKYTVYLQMNSLKPEDTAVYYCNADSNSDNNDYDYWGQGTQVTVSS	low polyreactivity
QVQLVESGGGLVQAGGSLRLICAASGIIFDVYAMGWYRQAPGKERELVAAISYGGGTTYYADSVKGRFTISRDNAKNTVYLQMNSLKPEDTAVYYCAADSYRSIGDDYWGQGTQVTVSS	high polyreactivity
QVQLVESGGGLVQAGGSLRVSCAASGFTFYVNAMGRYRQAPGKERELVAVISPSGGRTYYADSVKGRFTISRDNAKNTVYLQMNSLKPEDTAVYYCAAESGGYHWSTPYFDWLYYYWGQGTQVTVSS	low polyreactivity
QVQLVESGGGLVQAGGSLRLSCAASGSIFGYYSMGWYRQAPGKERELVASITSGDSTNYADSVKGRFTISRDNAKNTVYLQMNSLKPEDTAVDYCNTERGYYDEYDYWGQGTQVTVSS	low polyreactivity
QVQLVETGGGLVQAGGSLRLSCAASGFTFRFYAMGWSRQPPGKERELVAAISRGGSTYYADSVKVRFTISRYNEKNTVYLQMNSLKPEDTAVYYCAKRGRYGGYWGQGTQVTVSS	high polyreactivity
QVQLVESGGGLVQAGGSLRLSCAASGRTFGVYAMGWYRQAPGKERELVAAISATGGSTYYADSVKGRFTISRDNAKNTVYLQMNSLKPEDTAVYYCARGGTTLYWGQGTQVTVSS	high polyreactivity
QVQLVESGGGLVQAGGSLRLSCAASGRIFRYYAMGWYRQAPGKERELVAAISYSGGRTYYADSVKGRFTISRDNAKNTVYLQMNSLKPEDTAVYYCARFWHSQSSYVPFDSWGQGTQVTVSS	high polyreactivity
HVQLVESGGGLVQAGGSLRLSCAASGFTFSGYVMGWYRQAPGKERELVAAISNSGGRTYADSVKGRFTISRDNAKNTVYLQMNSLKPEDTAVYYCAKKPGGFSQASRVDYDYWGQGTQVTVSS	low polyreactivity
QVQLVESGGGLVQAGGSLRLSCAASGGTIAYNAMGWYRQAPGKERELVAAISSSGGRTYYADSVKGRFTISRDNAKNTVYLQMNSLKPEDTAVYYCATPVTNGFDYWGQGTQVTVSS	high polyreactivity

Reference: the nanobody polyreactivity screen of Harvey et al. (2022)
